From doi:10.1101/2020.04.29.069500

Target: first Tudor domain of PHF20L1 (PHF20L1 Tudor1) (UniProt A8MW92)
Test: NMR titration

Sequence of UniProt A8MW92 (A8MW92 5-70): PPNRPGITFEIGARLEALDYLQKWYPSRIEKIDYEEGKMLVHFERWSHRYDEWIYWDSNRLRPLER

- Kd: 670 µM
Substance: K142 mono-methylated (K142me1) DNMT1 peptide
